How the values were obtained:
Leu Enkephalin = target: T1, Leu Enkephalin (Homo sapiens, UniProt P01210); experiment: Color screening assay of bead-bound receptor libraries with Disperse Red-labelled substrate; format: binding; conditions: Table 5, label = AA1-AA5
T1 construct: composed of two pentapeptides Tyr-Gly-Gly-Phe-LeuOH and Tyr-Gly-Gly-Phe-MetOH; purchased Bachem, Inc
Protocol: (§1) The synthetic receptor library is then assayed to find those members of the library which have the desired interaction with the labeled substrate. In the case where the desired interaction is binding to the substrate, the synthetic receptor library is mixed with a solution of the labeled substrate and those library members that bind to the labeled substrate are selected. This procedure is particularly simple when the synthetic receptor library members are bound to a solid support as shown in Scheme 2. In that case, solid support particles having receptors which bind the labeled substrate accumulate color or fluorescence or radioactivity (depending on the nature of the label used). Depending on the concentration of the labeled substrate used, the assay can be adjusted to detect binding of any desired strength: for example, if the amount of labeled substrate in the presence of the receptor library is adjusted to give a 100 μM concentration of free (unbound) labeled substrate, then assay will only detect template-substrate binding with association constants (k) of (100 μM)^−1 or greater.
(§2) A color assay method was developed for screening receptor library beads. The color dye used is Disperse Red 1 (available from Aldrich Inc.), a neutral diazo dye whose λmax is at 502 nm. Red color in various organic solvents is visible at concentration as low as 100 μM.
(§3) After receptor beads are treated with a substrate which has a color dye attached on it, the bead binding the substrate is stained and can be easily identified in a background of many colorless beads. The stained bead is the removed from the library by a microsyringe, and subjected to decode to identify its structure. The decoding process involves three operations: a) photolysis of the beads, b) silylation of liberated alcohols, c) injection into GC-EC machine. Once identified, the receptor is then resynthesized on large quantities of beads for confirmatory binding studies. […] From this spectrum, the structure of the receptor is identified as C3—OGLY-leu-phe-Ac, C7—OGLY-ala-Lys-Ac.
(§4) Some additional binding studies for Peptidosteroidal receptors with beta-Casomorphinamide and Des-Tyr Leu Enkahphalin, are shown in the following table 5 and are compared to the Leu Enkaphalin and Met Enkaphalin. [drawing 47]

Met Enkephalin = target: T2, Met Enkephalin (Homo sapiens, UniProt P01210); experiment: as above; format: binding; conditions: Table 5, label = AA1-AA5; for Kd: read-out: KD-MAX; for BOUND: percentage of library beads bound
T2 construct: composed of two pentapeptides Tyr-Gly-Gly-Phe-LeuOH and Tyr-Gly-Gly-Phe-MetOH; purchased Bachem, Inc
Protocol: as §1, §2, §3, §4

Substance | Kd (Leu Enkephalin; read-out: KD-MAX) [µM] | BOUND (Leu Enkephalin; percentage of library beads bound) [%] | Kd (Met Enkephalin) [µM] | BOUND (Met Enkephalin) [%]
GLY-ASP-PRO-PRO-LEU (GDPPL; printed: GLY-ASP-PRO-PRO-LEU) | 81 | 0.7 |  | 
GLY-PHE-PRO-PRO-LEU (GFPPL; printed: GLY-PHE-PRO-PRO-LEU) |  |  | 85 | 0.5
PRO-THR-LYS-PHE-ALA (PTKFA; printed: PRO-THR-LYS-PHE-ALA) |  |  | 75 | 0.8
